From article PMC10197177

What was measured:
Assay in all cases: ELONA
Conditions in all cases: pH 7.4, room temperature, spike immobilized
[1] = biological target: Spike protein, Alpha (SARS-CoV-2 (Alpha variant)) (UniProt P0DTC2)
[2] = biological target: Spike protein, Beta (SARS-CoV-2 (Beta variant)) (UniProt P0DTC2)
[3] = biological target: Spike protein, Delta (SARS-CoV-2 (Delta variant)) (UniProt P0DTC2)
[4] = biological target: Spike protein, Omicron (SARS-CoV-2 (Omicron variant)) (UniProt P0DTC2)

Sequence | Kd [1] | Kd [2] | Kd [3] | Kd [4]
AATGGATCCACATCTACGAGCTCGAACGCCCGGAGGAGACGGGGGCAGGGCGTGTTCACTGCAGACTTGACGAAGCT [K1 (truncated working aptamer)] | 0.034 nM | 0.034 nM | 0.037 nM | 0.026 nM
ATCTACGAATTCTCCGCCAAGATAGAGGGTGGGCCGCGGAGAATTCACTGC [M40 (truncated working aptamer)] | 0.28 nM | 0.276 nM | 0.187 nM | 0.165 nM
